In patent publication US20260116968A1 (CELLDEX THERAPEUTICS, published 2026):
Residue numbers refer to the chain shown, from its start. Blank lines part the entries; values can stand above or below the binder they belong to.

Tests used:
[1] = target: T1, human CD40 expressed on the cell surface (Raji cells, Ramos cells, human PBMC B cells, luciferase reporter … (human, UniProt P25942 21-277)); assay: flow cytometry on Raji and Ramos cells
T1 construct: also called CD40 on cells expressing human CD40
T1 sequence (P25942 21-277 limits assumed): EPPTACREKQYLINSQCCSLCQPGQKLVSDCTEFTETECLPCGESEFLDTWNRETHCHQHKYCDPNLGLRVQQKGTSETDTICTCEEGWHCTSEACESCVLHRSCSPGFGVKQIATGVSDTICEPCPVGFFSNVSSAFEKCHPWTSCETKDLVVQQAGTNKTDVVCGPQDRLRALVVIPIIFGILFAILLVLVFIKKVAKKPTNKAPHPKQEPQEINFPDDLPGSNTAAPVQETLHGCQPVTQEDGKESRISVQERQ
Description: Antibodies from Example 1 were tested for binding to human cell lines expressing human CD40 on their surface. […] After 20 minutes, the cells were washed with PBS containing 0.1% BSA and 0.05% NaN3 (PBA) and the bound antibodies were detected by incubating the cells with a PE labeled goat anti-human IgG Fc-specific probe. The excess probe was washed from the cells with PBA and the cell associated fluorescence was determined by analysis using a FACSCanto II™ instrument (BD Biosciences, NJ, USA) according to the manufacturer's directions.

[2] = target: T2, kappa-sCD40(1-94)-Flag mutant fragment B (multiple mutations of residues 13-15) (human, UniProt P25942 21-114); assay: ELISA, kappa-sCD40-Flag (~2 ug/ml) captured by anti-Flag, anti-human IgG Fc-HRP detection
T2 construct: also called B (13-15); not shown: The N-terminal human kappa light chain and the C-terminal Flag tag
T2 chain: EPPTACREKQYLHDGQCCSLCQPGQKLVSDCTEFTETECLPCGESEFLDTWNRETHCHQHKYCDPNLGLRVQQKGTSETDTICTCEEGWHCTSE
Description: (§1) containing the sCD40 fusion proteins were captured to microtiter plates that were pre-coated with 5 μg/ml mouse anti-Flag antibody (Sigma) in PBS and blocked with 5% bovine serum albumin in PBS. Following incubation with the CD40 antibody, the microplates were washed with PBS/Tween, and incubated with a goat anti-human IgG Fc polyclonal reagent conjugated to horseradish peroxidase. After washing, the plates were developed with HRP substrate, and analyzed at OD 450-650 using a microtiter plate reader. An ELISA with a goat anti-human IgG Fab2-HRP to measure kappa chain binding was carried out in parallel to validate the sCD40 fusion protein expression from different transfections.

[3] = target: T3, kappa-sCD40(1-94)-Flag mutant fragment C (multiple mutations of residues 25, 26, 28 and 30) (human, UniProt P25942 21-114); assay: as above
T3 construct: also called C (25, 26, 28, 30); not shown: The N-terminal human kappa light chain and the C-terminal Flag tag
T3 chain: T2 chain with H13I, D14N, G15S, Q25S, K26R, V28T, D30H
Description: as §1

[4] = target: T2, kappa-sCD40(1-94)-Flag mutant fragment …; assay: ELISA, kappa-sCD40-Flag captured by anti-Flag, anti-human IgG Fc-HRP detection
Description: as §1, with “1 μg/ml of purified kappa-sCD40-Flag fusion proteins or CHO cell supernatants containing” for “containing”

[5] = target: T3, kappa-sCD40(1-94)-Flag mutant fragment …; assay: as above
Description: as §1, with “1 μg/ml of purified kappa-sCD40-Flag fusion proteins or CHO cell supernatants containing” for “containing”

binding result [1]: binds
B1: anti-CD40 human monoclonal antibody 1B4 (antibody, human IgG2, V domains shown)
VH: EVQLLESGGGLVQPGGSLRLSCAASGFTFSSYAMTWVRQVPGKGLEWVSGITGSGANTFYTDSVKGRFTISRDNSNNSLYLQMNSLRADDTAVYYCAKRNGGSYYYYYGMDVWGQGTTVTVSS
VL: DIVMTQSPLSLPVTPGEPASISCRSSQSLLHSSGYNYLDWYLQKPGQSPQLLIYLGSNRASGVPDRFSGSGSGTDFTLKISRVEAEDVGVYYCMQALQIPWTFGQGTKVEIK
notes: Human IgG2

binding result [1]: binds
B2: anti-CD40 human monoclonal antibody 3B6 (antibody, human IgG2, V domains shown)
VH: EVQLLESGGGLVQPGGSLRLSCAASGFTFSSYAMSWVRQAPGKGLEWVSGITGTGGSTYYADSVKGRFTISRDNSKNTLYVQMNSLRAEDTAVYYCAKRAGGSFYYYYGMDVWGQGTTVTVSS
VL: DIVMTQSPLSLPVTPGEPASISCRSSQSLLHSTGYNYLDWYLQKPGQSPQLLIYLGSNRASGVPDRFNGSGSGTDFTLKISRVEAEDFGVYYCMQALQTPWTFGHGTKVEIK
notes: Human IgG2

binding result [1]: binds
B3: anti-CD40 human monoclonal antibody 6H6 (antibody, human IgG2, V domains shown)
VH: QVQLVESGGGVVQPGRSLRFSCAASGFTLSSYGMHWVRQAPGKGLEWVAVIWDDGSNKYYADSVKGRFTISRDNSKNTLYLQMNSLRAEDTAVYYCARAGGSGRYYNYFDYWGQGTLVTVSS
VL: EIVMTQSPATLSVSPGERATLSCRASQSVRSNLAWYQQKPGQAPRLLIYGASTRATGIPARFSGSGSGTDFTLTISSLQSEDFAVYYCQQHNNWLTFGGGTKVEIK
notes: Human IgG2

OD [2]: 2.38 OD 450-650
OD [3]: 2.02 OD 450-650
Average OD [4]: 2.03 OD 450-650
Average OD [5]: 1.49 OD 450-650
B4: anti-CD40 human monoclonal antibody 3C3 (antibody, human IgG2, kappa, V domains shown)
VH: QVQLVESGGGVVQPGRSLRLSCAGSGFIFSRYGMYWVRQAPGKGLEWVAVIWYDGSYKYYADSVKGRFTISRDNSKNTLYLQMNSLRAEDTAVYYCARESPWYYFDYWGQGTLVTVSS
VL: DIQMTQSPSSLSASVGDRVTITCRASQGISNYLAWYQQKPGKVPKLLIYAASTLQSGVPSRFSGSGSGTDFTLTISSLQPEDVATYYCQKYKSAPFTFGPGTKVDIKR
notes: Full chains with leader removed; human IgG2 constant domain with C-terminal lysine removed; also called anti-CD40 mAb 3C3; CD40 antibody 3C3
